{"source": "patent US20110117017A1", "about": "“PEPTIDES WITH PROPERTIES OF AN […] FOR THE ALPHA 1A […] RECEPTOR AND USES THEREOF” (priority 2006, published 2011)", "binders": {"B1": {"name": "AdTx1 peptide (peptide)", "peptide": "LTCVTSKSIFGITTEDCPDGQNLCFKRRHYVVPKIYDSTRGCAATCPIPENYDSIHCCKTDKCNE", "modifications": "not checked"}}, "target": "T1, alpha1b adrenergic receptor (expressed in Pichia pastoris, membranes) (Homo sapiens (Human)), P35368", "T1 chain": "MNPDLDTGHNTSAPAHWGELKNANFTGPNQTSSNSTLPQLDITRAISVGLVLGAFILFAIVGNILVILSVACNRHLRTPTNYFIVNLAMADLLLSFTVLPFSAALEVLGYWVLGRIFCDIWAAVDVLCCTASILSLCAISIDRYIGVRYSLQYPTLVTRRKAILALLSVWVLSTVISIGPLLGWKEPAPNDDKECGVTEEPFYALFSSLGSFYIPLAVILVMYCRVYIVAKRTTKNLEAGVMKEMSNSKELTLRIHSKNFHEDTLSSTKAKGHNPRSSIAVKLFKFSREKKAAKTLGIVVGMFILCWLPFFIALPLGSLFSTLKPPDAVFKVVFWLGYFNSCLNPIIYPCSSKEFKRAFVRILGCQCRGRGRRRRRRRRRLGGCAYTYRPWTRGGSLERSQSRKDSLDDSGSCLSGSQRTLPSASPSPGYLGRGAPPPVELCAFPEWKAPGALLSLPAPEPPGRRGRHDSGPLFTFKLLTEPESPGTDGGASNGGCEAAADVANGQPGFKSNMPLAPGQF", "assay": "displacement of 3H-prazosin (1 nM) from yeast membranes, filtration"}
{"binder": "B1", "values": [{"measurement": "IC50", "value": 2300, "unit": "nM"}]}
